Test system: wild-type human IDO1

Substance: human Src Y530F
- tyrosine phosphorylation of human IDO1 Tyr249 (ITIM2), western blot of SW837 IDO1WT lysate: Expression of human Src Y530F in SW837 IDO1WT cells was shown to enhance tyrosine phosphorylation of human IDO1 Tyr249 (ITIM2)

— patent US20200383981
